{
  "source": "patent US10208290B2",
  "about": "“Virion display array for profiling functions and interactions of human membrane proteins” (THE JOHNS HOPKINS UNIVERSITY, priority 2013, dated 2019)",
  "molecules": {"B1": {"name": "C5a: complement anaphylatoxin C5a, canonical ligand of GPR77 (Abcam), labeled with Cy5 (protein)", "chain": "TLQKKIEEIAAKYKHSVVKKCCYDGACVNNDETCEQRAARISLGPRCIKAFTECCVVASQLRANISHKDMQLGR"}},
  "key": {"[1]": {"biological_target": "T1, GPR77 (Homo sapiens, UniProt Q9P296)", "T1 construct": "gB:CD4 and gB:GPR77, express the full-length human membrane proteins at the gB locus under the control of native gB promoter; made in house; host or cells: HFT cells (telomerase-immortalised human foreskin fibroblasts) infected with recombinant HSV-1; purified extracellular virions", "T1 sequence (Q9P296 whole entry)": "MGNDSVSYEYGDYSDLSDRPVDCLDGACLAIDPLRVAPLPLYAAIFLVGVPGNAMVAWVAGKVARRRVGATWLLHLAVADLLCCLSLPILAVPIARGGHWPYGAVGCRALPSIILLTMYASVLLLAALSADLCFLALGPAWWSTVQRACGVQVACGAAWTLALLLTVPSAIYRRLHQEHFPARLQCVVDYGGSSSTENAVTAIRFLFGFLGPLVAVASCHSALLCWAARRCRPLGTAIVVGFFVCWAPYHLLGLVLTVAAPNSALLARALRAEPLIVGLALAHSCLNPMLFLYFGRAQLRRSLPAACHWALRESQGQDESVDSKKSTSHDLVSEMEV", "test": "Ligand binding assay on VirD Array", "details": "C5a at 1 μM, gB:GPR77 virions on VirD Array", "method": "(§1) Ligand binding assay on VirD Array. The VirD Array was blocked in TBST with 1% BSA for 1 h at room temperature with gentle shaking. C5a (Abcam) was labeled with Cy5 NHS Easter (GE Healthcare) and incubated on the VirD Array at 1 μM in ligand binding buffer (1 mM MgCl2, 2 mM CalCl2, 0.2% BSA, and 25 mM HEPES, pH 7.4) at room temperature for 1 h with gentle shaking. The array was washed for […] in ice-cold washing buffer (0.5 M NaCl in 10 mM HEPES, pH 7.4) for 3 times with shaking, dried by spinning, and scanned as described above."}, "[2]": {"tested_on": "GPR77", "test": "Ligand binding assay on VirD Array", "parameters": "species or system human", "details": "C5a at 1 μM", "method": "as §1"}},
  "data": [
    {"molecule": "B1", "values": [
      {"measurement": "binding of Cy5-labeled C5a to gB:GPR77 virions", "setting": "[1]", "result": "weaker binding signals"},
      {"measurement": "binding of Cy5-labeled C5a to GPR77-gC virions", "setting": "[2]; GPR77-gC virions on VirD Array", "result": "strong binding activity"},
      {"measurement": "binding of Cy5-labeled C5a to other virions", "setting": "[2]; other virions on VirD Array (specificity)", "result": "no detectable signals"}
    ]}
  ]
}
